Reference: patent US20220252583A1

Tests used:
[1] = molecular target: monoclonal mouse IgG1 anti human CRP antibody B08; assay: swCNT-FET displacement of peptide 80715-Au nanoparticle complex from immobilised B08; CRP 100 nM in PBS
[2] = molecular target: monoclonal mouse IgG1 anti human CRP antibody B08; assay: swCNT-FET displacement of peptide 80715-Au nanoparticle complex from immobilised B08; CRP 1.56 nM in PBS
[3] = molecular target: monoclonal mouse IgG1 anti human CRP antibody B08; assay: swCNT-FET displacement of peptide 80715-Au nanoparticle complex from immobilised B08; CRP 3 pM in PBS
[4] = molecular target: monoclonal mouse IgG1 anti human CRP antibody B08; assay: swCNT-FET displacement of peptide 80715-Au nanoparticle complex from immobilised B08; CRP 381 fM in PBS
[5] = molecular target: monoclonal mouse IgG1 anti human CRP antibody B08; assay: swCNT-FET displacement of peptide 80715-Au nanoparticle complex from immobilised B08; CRP 12.5 nM in PBS
[6] = molecular target: monoclonal mouse IgG1 anti human CRP antibody B08; assay: swCNT-FET displacement of peptide 80715-Au nanoparticle complex from immobilised B08; CRP 24 pM in PBS
[7] = molecular target: monoclonal mouse IgG1 anti human CRP antibody B08; assay: swCNT-FET displacement of peptide 80715-Au nanoparticle complex from immobilised B08; CRP 195 pM in PBS
[8] = molecular target: monoclonal mouse IgG1 anti human CRP antibody B08; assay: swCNT-FET displacement of peptide 80715-Au nanoparticle complex from immobilised B08; CRP 800 nM in PBS

ΔV (V) [1]: -0.024 V
ΔV (V) [2]: -0.02 V
ΔV (V) [3]: -0.013 V
ΔV (V) [4]: -0.009 V
ΔV (V) [5]: -0.022 V
ΔV (V) [6]: -0.016 V
ΔV (V) [7]: -0.017 V
ΔV (V) [8]: -0.027 V
B1: biomarker C-reactive protein (CRP) (protein, human, UniProt P02741 19-224, looked up)
chain: QTDMSRKAFVFPKESDTSYVSLKAPLTKPLKAFTVCLHFYTELSSTRGYSIFSYATKRQDNEILIFWSKDIGYSFTVGGSEILFEVPEVTVAPVHICTSWESASGIVEFWVDGKPRVRKSLKKGYTVGAEASIILGQEQDSFGGNFEGSQSLVGDIGNVNMWDFVLSPDEINTIYLGGPFSPNVLNWRALKYEVQGEVFTKPQLWP
